From patent US20200139098A1, “DELIVERY SYSTEM AND PROCESS” (POLYPHARMA PTY LTD, priority 2006, published 2020)

Tested on: rabbit eyes
Assay: Distribution of Avastin in sectioned rabbit eyes by fluorescence and DIC microscopy, after intravitreal injection or sonophoresis from a hydrogel
Format: in vivo
From the text: As described above, the delivery system or device can be used to deliver molecules and/or nanoparticles to the eye of a patient. Once delivered to the surface of the eye, the molecules and/or nanoparticles can penetrate the outer surface of the eye and diffuse to the posterior parts of the eye. For example, FIGS. 14 to 19 are optical microscope images of sectioned rabbit eyes imaged by Differential Interference Contrast (DIC) phase contrast imaging and fluorescence imaging, illustrating the distribution of the monoclonal antibody Avastin to various parts of the eye. Each of these six Figures includes two panels, comprising a left-hand panel showing a fluorescence image, and a right-hand panel showing a white light DIC phase contrast image. FIGS. 14 to 16 illustrate the distribution of Avastin delivered by intravitreal injection, whereas FIGS. 17 to 19 show the distribution of Avastin delivered from a hydrogel by sonophoresis of five minute duration. The red colour in the fluorescence images indicates a secondary antibody bound to Avastin. Consequently, the red colour indicates the location of Avastin in the tissues of the eye.
The vitreous humor is not visible in the “white-light” DIC images because the sections are mounted on the slides using a 90% glycerol solution in order to stabilise the cover slip and the section during the confocal microscopy. The glycerol has a similar refractive index to the vitreous humor.

Avastin: the monoclonal antibody Avastin
presence of Avastin in vitreous humor (staining) (rabbit eye (LE), Sonoactuator: hydrogel, sonophoresis of five minute duration): not visibly stained
presence of Avastin in vitreous (red staining) (rabbit eye (RE), intravitreal injection): abundant presence
staining of ciliary body for Avastin (rabbit eye, delivery from the gel with ultrasound): does not stain well
staining of ciliary body and iris for Avastin (rabbit eye, intravitreal injection): heavily stained
delivery of Avastin to choroid and retina (rabbit eye, non-invasive delivery from hydrogel under ultrasonic stimulation (FIGS. 17 to 19)): non-invasively delivered to the choroid and retina
